Source: publication PMC2444022

How the values were obtained:
[1] = system: LysRS(T133A) (Escherichia coli); assay: EMSA; conditions: gel-retardation buffer, pH and temperature not in material
[2] = system: LysRS(K130A) (Escherichia coli); assay: EMSA; conditions: gel-retardation buffer, pH and temperature not in material
[3] = system: LysRS wild type (lysyl-tRNA synthetase) (Escherichia coli); assay: EMSA; conditions: reference; gel-retardation buffer, pH and temperature not in material
[4] = system: LysN (anticodon-binding domain of LysRS) (Escherichia coli); conditions: gel-retardation buffer, pH and temperature not in material; cited from earlier work

Substance	binding signal (fraction of WT bound) [1]	binding signal (fraction of WT bound) [2]	binding signal (fraction of WT bound) [3]	Kd [4]
tRNALys	1.17	0.35	1	
tRNALys (unlabeled competitor)				100 µM
